Target: the molecule itself
Assay: cryo-EM structure

B1: enolase, native, Francisella novicida (enzyme)
chain: MSSQIKQVFARQILDSRGNPTVEVDVVLESGAFGRAAVPSGASTGIREALELRDGNKALFLGKSVYKAVENVNTKIAQAVKGLDALDQRLIDKTMIELDGSENKKNLGANAILGVSLATARAAASHLRKPFYRYLMDVKEYLMPVPMMNVINGGSHADNNVDMQEFMIVPAGFDTFSEALRCGTEVFHTLKKVLIADGYSVAGVGDEGGYAPDLPSNEAAIEAILKAVKEAGYEPGKHVFIALDPASSEFYKDGKYELKSENKSLTSEEMIDYYAAWVEKYPIVSIEDGLAEEDWAGWKLLTEKLGNKVQLVGDDLFVTNPSILAKGIEKGIANSILIKLNQIGTLTETFEAMAMAGQAGYTCVVSHRSGETSDTIIADLAVATCSGQIKTGSLSRSDRIAKYNQLLRIEEELGENAIYPGIKAFVFNSDEEVEEDVQEIIVEDSEAEKVVVQVEE
stoichiometry N: 2
